According to patent US20030092068A1 (ASAHI KASEI, published 2003):

Target: c-Kit (CD117) on human undifferentiated blood cells (UT-7, M07e, cord blood-derived CD34 positive cells) (human, UniProt P10721 26-976)
Assay: cell-based or functional assay

Sequence of c-Kit (CD117) on human undifferentiated blood cells (UT-7, M07e, cord blood-derived CD34 positive cells) (P10721 26-976): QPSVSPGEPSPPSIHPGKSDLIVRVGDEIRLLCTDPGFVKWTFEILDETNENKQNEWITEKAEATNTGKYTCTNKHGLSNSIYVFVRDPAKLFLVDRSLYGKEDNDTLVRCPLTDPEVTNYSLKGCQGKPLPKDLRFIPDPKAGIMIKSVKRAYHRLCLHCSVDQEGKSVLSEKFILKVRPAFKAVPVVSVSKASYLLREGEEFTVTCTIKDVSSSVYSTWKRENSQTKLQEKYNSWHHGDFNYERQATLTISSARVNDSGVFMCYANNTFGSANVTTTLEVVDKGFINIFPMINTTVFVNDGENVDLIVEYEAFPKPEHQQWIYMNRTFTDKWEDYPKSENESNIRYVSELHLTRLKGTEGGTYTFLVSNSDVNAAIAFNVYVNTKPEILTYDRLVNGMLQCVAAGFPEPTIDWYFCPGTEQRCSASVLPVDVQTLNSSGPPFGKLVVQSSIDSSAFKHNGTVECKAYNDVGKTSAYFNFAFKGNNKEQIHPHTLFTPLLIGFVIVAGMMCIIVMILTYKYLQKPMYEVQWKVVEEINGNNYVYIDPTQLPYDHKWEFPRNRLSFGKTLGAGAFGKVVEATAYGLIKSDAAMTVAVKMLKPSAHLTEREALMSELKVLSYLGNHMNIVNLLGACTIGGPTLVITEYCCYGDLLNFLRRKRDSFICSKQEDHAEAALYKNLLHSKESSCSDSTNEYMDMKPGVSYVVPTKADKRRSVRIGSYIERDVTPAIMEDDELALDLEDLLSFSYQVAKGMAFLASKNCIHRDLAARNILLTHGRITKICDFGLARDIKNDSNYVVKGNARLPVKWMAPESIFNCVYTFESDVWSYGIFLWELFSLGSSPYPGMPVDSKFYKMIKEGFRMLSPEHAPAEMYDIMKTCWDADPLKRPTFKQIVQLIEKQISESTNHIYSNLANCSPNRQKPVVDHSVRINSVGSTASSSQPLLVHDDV

B1: polypeptide (CARex-mSCF), being CAR extracellular region linked with mouse SCF (other)
chain: LSITTPEEMIEKAKGETAYLPCKFTLSPEDQGPLDIEWLISPADNQKVDQVIILYSGDKIYDDYYPDLKGRVHFTSNDLKSGDASINVTNLQLSDIGTYQCKVKKAPGVANKKIHLVVLVKPSGARCYVDGSEEIGSDFKIKCEPKEGSLPLQYEWQKLSDSQKMPTSWLAEMTSSVISVKNASSEYSGTYSCTVRNRVGSDQCLLRLNVVPPSNKAHHHHHHSASASAKEICGNPVTDNVKDITKLVANLPNDYMITLNYVAGMDVLPSHCWLRDMVIQLSLSLTTLLDKFSNISEGLSNYSIIDKLGKIVDDLVLCMEENAPKNIKESPKRPETRSFTPEEFFSIFNRSIDAFKDFMVASDTSDCVLSSTLGPEKDSRVSVTKPFMLPPVA
  GFP positive cell ratio, M07e cells, Ax1CAgfp at MOI 100 (adenovirus alone 0.5%): 82%
